Measured values reported in patent US10947272B2, “BACE1 inhibitor peptides” (HOFFMANN-LA ROCHE INC., priority 2015, dated 2021).
Structures can show the parent of a compound that is named as a salt. Where two headings read alike, the source gives them in different places. Blank lines part the entries; values can stand above or below the molecule they belong to. Numbered stars: 1 amine (or outer) side, 2 acyl side, 3 side chain; on linkers, the order of the positions; unused ones are H or OH. Square brackets hold non-standard residues; d marks the D form. Ends that are not written are not given here. Peptide text beside a SMILES is read from it. MetSta(3S,4S) = CSCC[C@H](N[*:1])[C@@H](O)CC(=O)[*:2]; Sta = CC(C)C[C@H](N)[C@@H](O)CC(=O)O; PEG4 = NCCOCCOCCOCCOCCC(=O)O

Tests used:
[1] = target: BACE1 (Asp2, β-secretase, Memapsin-2) in HEK293 cells stably expressing human APP695 (UniProt P56817); assay: cell-based or functional assay
[2] = target: T1, BACE1 (Homo sapiens, UniProt P56817); assay: Cellular Aβ-lowering assay (Aβ40 ELISA of culture supernatant); assay type: cell-based; settings: HEK293 cells stably transfected with human APP wt (APP695), Aβ40 in supernatant
T1 construct: Human HEK293 cells which are stably transfected with a vector expressing a cDNA of the human APP wt gene (APP695); endogenous in cells; host or cells: HEK293 (human), stably transfected with human APP695 wt cDNA
Experimental: The compounds were investigated in accordance with the test given hereinafter. Cellular Aβ-Lowering Assay: Human HEK293 cells which are stably transfected with a vector expressing a cDNA of the human APP wt gene (APP695) were used to assess the potency of the compounds in a cellular assay. The cells were seeded in 96-well microtiter plates in cell culture medium (Iscove, plus 10% (v/v) fetal bovine serum, glutamine, penicillin/streptomycin) to about 80% confluence and the compounds were added at a 10× concentration in 1/10 volume of medium without FCS containing 8% DMSO (final concentration of DMSO was kept at 0.8% v/v). After 18-20 hrs incubation at 37° C. and 5% CO2 in a humidified incubator the culture supernatant was harvested for the determination of Aβ40 concentrations. 96 well ELISA plates (e.g., Nunc MaxiSorb) were coated with monoclonal antibody which specifically recognize the C-terminal end of Aβ40 (Brockhaus et al., NeuroReport 9, 1481-1486; 1998). After blocking of non-specific binding sites with e.g. 1% BSA and washing, the culture supernatants were added in suitable dilutions together with a horseradish peroxidase-coupled Aβ detection antibody (e.g., antibody 4G8, Senetek, Maryland Heights, Mo.) and incubated for 5 to 7 hrs. Subsequently the wells of the microtiter plate were washed extensively with Tris-buffered saline containing 0.05% Tween 20 and the assay was developed with tetramethylbenzidine/H2O2 in citric acid buffer. After stopping the reaction with one volume 1 N H2SO4 the reaction was measured in an ELISA reader at 450 nm wavelength. The concentrations of Aβ in the culture supernatants were calculated from a standard curve obtained with known amounts of pure Aβ peptide.

[3] = target: T2, BACE1 (Asp2, β-secretase, Memapsin-2) in HEK293 cells stably expressing human APP695 (UniProt P56817 46-501, limits assumed); assay: cell-based or functional assay
[4] = target: T2, BACE1 (Asp2, β-secretase, Memapsin-2) …; assay: cell-based or functional assay; remark: listed apart in the source
[5] = exosite motifs alone, read-out: IC 50

T1 sequence (P56817 46-501): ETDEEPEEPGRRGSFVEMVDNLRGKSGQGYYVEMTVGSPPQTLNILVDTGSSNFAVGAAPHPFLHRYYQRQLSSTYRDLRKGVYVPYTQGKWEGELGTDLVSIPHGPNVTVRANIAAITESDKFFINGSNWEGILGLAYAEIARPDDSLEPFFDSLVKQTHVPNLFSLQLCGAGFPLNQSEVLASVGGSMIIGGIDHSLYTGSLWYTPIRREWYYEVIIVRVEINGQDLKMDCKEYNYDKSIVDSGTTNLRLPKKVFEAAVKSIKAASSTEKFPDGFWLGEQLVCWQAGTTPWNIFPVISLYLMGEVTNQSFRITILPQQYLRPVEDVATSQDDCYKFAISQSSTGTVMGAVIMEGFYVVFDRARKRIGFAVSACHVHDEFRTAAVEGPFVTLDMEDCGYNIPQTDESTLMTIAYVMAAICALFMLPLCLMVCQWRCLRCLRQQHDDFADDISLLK
T2 sequence (P56817 46-501 limits assumed): as the sequence (P56817 46-501) above
BACE1 (Asp2, β-secretase, Memapsin-2) in HEK293 cells stably expressing human APP695 (UniProt P56817), sequence (P56817 46-501 limits assumed): as the sequence (P56817 46-501) above

Molecule: CC(C)C[C@H](NC(=O)[C@@H]1CCCN1C(=O)[C@@H](CCCCN)NC(=O)[C@H](Cc1ccccc1)NC(=O)[C@H](Cc1ccc(O)cc1)NC(=O)[C@@H]1CCCN1C(=O)[C@@H](N)Cc1ccc(O)cc1)C(=O)NCCOCCOCCOCCOCCC(=O)N[C@@H](CCC(=O)O)C(=O)N[C@H](C(=O)N[C@@H](CC(N)=O)C(=O)N[C@@H](CC(C)C)[C@@H](O)CC(=O)N[C@H](C(=O)N[C@@H](C)C(=O)N[C@@H](CCC(=O)O)C(=O)N1CCC[C@@H]1C(N)=O)C(C)C)C(C)C [Example 24, H-Tyr-Pro-Tyr-Phe-DLys-Pro-Leu-PEG(4)-Glu-Val-Asn-Sta-Val-Ala-Glu-DPro-NH2 × 2TFA] (H-YPYF[dK]PL[PEG4]EVN[Sta]VAE[dP]-NH2)
IC50 ([2]; IC 50, dual-site BACE1 inhibitors, 18-20 hrs incubation): > 40 µM

Molecule: Ac-GDYPKFISAN-NH2 [Ac-Gly-Asp-Tyr-Pro-Lys-Phe-Ile-Ser-Ala-Asn-NH2]
IC 50, cellular Aβ-lowering assay (Aβ40 in supernatant of HEK293 cells expressing human APP695) [3]: > 40 µM

Molecule: Ac-LTTYPYFKPA-NH2 [Ac-Leu-Thr-Thr-Tyr-Pro-Tyr-Phe-Lys-Pro-Ala-NH2]
IC 50, cellular Aβ-lowering assay (Aβ40 in supernatant of HEK293 cells expressing human APP695) [3]: 14.4 µM

Molecule: Ac-GSYPKFIDAN-NH2 [Ac-Gly-Ser-Tyr-Pro-Lys-Phe-Ile-Asp-Ala-Asn-NH2]
IC 50, cellular Aβ-lowering assay (Aβ40 in supernatant of HEK293 cells expressing human APP695) [3]: > 40 µM

Molecule: Ac-STGARFIPAN-NH2 [Ac-Ser-Thr-Gly-Ala-Arg-Phe-Ile-Pro-Ala-Asn-NH2]
IC 50, cellular Aβ-lowering assay (Aβ40 in supernatant of HEK293 cells expressing human APP695) [3]: > 40 µM

Molecule: Ac-GDYPKFIPAS-NH2 [Ac-Gly-Asp-Tyr-Pro-Lys-Phe-Ile-Pro-Ala-Ser-NH2]
IC 50, cellular Aβ-lowering assay (Aβ40 in supernatant of HEK293 cells expressing human APP695) [3]: > 40 µM

Molecule: Ac-QQYPYFKPAN-NH2 [Ac-Gln-Gln-Tyr-Pro-Tyr-Phe-Lys-Pro-Ala-Asn-NH2]
IC 50, cellular Aβ-lowering assay (Aβ40 in supernatant of HEK293 cells expressing human APP695) [3]: > 40 µM

Results, then the molecule that gave them:

IC 50, cellular Aβ-lowering assay (Aβ40 in supernatant of HEK293 cells expressing human APP695) [1]: 34.8 µM
Molecule: H-YPY[dK]IPLG[dK]GEVN[Sta]VAE[dP]-NH2

IC50 [2, 5]: > 40 µM
Molecule: CC[C@H](C)[C@H](NC(=O)[C@H](Cc1ccccc1)NC(=O)[C@H](CCCCN)NC(=O)[C@@H]1CCCN1C(=O)[C@H](Cc1ccc(O)cc1)NC(=O)[C@H](CC(=O)O)NC(=O)CNC(C)=O)C(=O)N[C@@H](CO)C(=O)N[C@@H](C)C(=O)N[C@@H](CC(N)=O)C(N)=O [Example E4, Ac-Gly-Asp-Tyr-Pro-Lys-Phe-Ile-Ser-Ala-Asn-NH2] (Ac-GDYPKFISAN-NH2)

IC50 ([2]; active site motifs alone, read-out: IC 50): > 40 µM
Molecule: CSCC[C@H](NC(=O)[C@H](CC(N)=O)NC(=O)[C@@H](NC(=O)[C@@H](N)CCC(=O)O)C(C)C)[C@@H](O)CC(=O)N[C@H](C(=O)N[C@@H](C)C(=O)N[C@@H](CCC(=O)O)C(=O)N[C@H](Cc1ccccc1)C(N)=O)C(C)C [Example A2, Glu-Val-Asn-MetSta-Val-Ala-Glu-DPhe-NH2 × TFA, reference compound] (H-EVN[MetSta(3S,4S)]VAE[dF]-NH2)

IC50 [2, 5]: > 40 µM
Molecule: CC[C@H](C)[C@H](NC(=O)[C@H](Cc1ccccc1)NC(=O)[C@H](CCCCN)NC(=O)[C@@H]1CCCN1C(=O)[C@H](Cc1ccc(O)cc1)NC(=O)[C@H](CC(=O)O)NC(=O)CNC(C)=O)C(=O)N1CCC[C@H]1C(=O)N[C@@H](C)C(=O)N[C@@H](CO)C(N)=O [Example E5, Ac-Gly-Asp-Tyr-Pro-Lys-Phe-Ile-Pro-Ala-Ser-NH2] (Ac-GDYPKFIPAS-NH2)

IC50 [2, 5]: > 40 µM
Molecule: YQTFKPANGS [Example E2, Ac-Tyr-Gln-Thr-Phe-Lys-Pro-Ala-Asn-Gly-Ser-NH2, exosite motif peptide tested alone]

IC 50, cellular Aβ-lowering assay (Aβ40 in supernatant of HEK293 cells expressing human APP695) [4]: > 40 µM
Molecule: EVN[Sta]VAEF-NH2 (also: TFA salt) [Glu-Val-Asn-Sta-Val-Ala-Glu-Phe-NH2 × TFA]

IC 50, cellular Aβ-lowering assay (Aβ40 in supernatant of HEK293 cells expressing human APP695) [4]: > 40 µM
Molecule: EVN[Sta]VAE[dP]-NH2 (also: TFA salt) [Glu-Val-Asn-Sta-Val-Ala-Glu-DPro-NH2 × TFA]

IC 50, cellular Aβ-lowering assay (Aβ40 in supernatant of HEK293 cells expressing human APP695) [3]: > 40 µM
Molecule: Ac-YPTFKPANGS-NH2 (not fully specified; printed as Ac-YPTFKPANGS-NH2) [Ac-YPTFKPANGS-NH2]

IC 50, cellular Aβ-lowering assay (Aβ40 in supernatant of HEK293 cells expressing human APP695) [4]: > 40 µM
Molecule: EVN[MetSta(3S,4S)]VAE[dF]-NH2 (also: TFA salt) [Glu-Val-Asn-MetSta-Val-Ala-Glu-DPhe-NH2 × TFA]
